Data: PMC8447599

Legend:
[1] = biological target: Apo-PGP (photosensory domain of FphA without chromophore) (A. nidulans); test: BLI
[2] = biological target: Holo-PGP (chromophore-loaded photosensory domain of FphA) (A. nidulans); test: BLI
[3] = biological target: HoxA without the hydrophobic C-terminal membrane anchor (HoxA∆CTA), Strep-tagged (Alternaria alternata); test: SEC

Substance: HoxA without the hydrophobic C-terminal membrane anchor (HoxA∆CTA), Strep-tagged (domain or fragment)
- Kd [1]: 0.00113 mM
- Kd [2]: 64.6 mM
- stoichiometry N [3]: 2
